{"source": "paper PMC12823420", "key": {"[1]": {"target": "UAP56 (Homo sapiens, UniProt Q13838 1-428)", "assay": "GCI; 1 mM ATP; RNA immobilized; GCI: 25 mM HEPES pH 7.9, 50 mM KCl, 1 mM MgCl2, 1 mM TCEP, 1 mM ATP, 25 C; AdML pull-down: 20 mM HEPES pH 7.9, 100 mM KCl, 2 mM MgCl2, 5% glycerol, 0.1% Igepal, 1 mM AMP-PNP, RT; unclamping: same with 40 mM KCl, 500 mM KCl washes", "conditions": "protein: recombinant; otherwise unlabelled; single strand"}, "[2]": {"target": "UAP56-UCM-1 fusion (Homo sapiens, UniProt Q13838 1-428+P82979:82-115, internal_change)", "assay": "GCI; 1 mM ATP; RNA immobilized; GCI: 25 mM HEPES pH 7.9, 50 mM KCl, 1 mM MgCl2, 1 mM TCEP, 1 mM ATP, 25 C; AdML pull-down: 20 mM HEPES pH 7.9, 100 mM KCl, 2 mM MgCl2, 5% glycerol, 0.1% Igepal, 1 mM AMP-PNP, RT; unclamping: same with 40 mM KCl, 500 mM KCl washes", "conditions": "protein: recombinant; tags: 10xHis; otherwise unlabelled; single strand"}}}
{"binder": "UUUUUUUUUUUUUUU (ssRNA)", "note": "[15U RNA]", "values": [{"measurement": "Kd", "setting": "[1]", "value": "780 ± 90", "unit": "nM"}, {"measurement": "Kd", "setting": "[2]", "value": "270 ± 60", "unit": "nM"}]}
